# Target: ndufs4^-/- complex I (N-module plus QP subcomplex) (mouse (endogenous in heart and kidney)) (UniProt Q91YT0)
# Assay: cryo-EM structure
# assembly factor NDUFAF2 (natural protein), sequence (Q59J78 whole entry): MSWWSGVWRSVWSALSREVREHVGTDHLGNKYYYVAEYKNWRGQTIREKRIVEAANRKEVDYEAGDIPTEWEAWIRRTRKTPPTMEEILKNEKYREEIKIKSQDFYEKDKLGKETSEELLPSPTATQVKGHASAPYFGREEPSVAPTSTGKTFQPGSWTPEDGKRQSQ
substance,measurement,value
assembly factor NDUFAF2 (natural protein),percent of particles that contain NDUFAF2,14%
